Measurements reported in PMC4169592.

Molecular target: EGFP-Vinexin β (mouse)
Experiment: FRET or BRET; acceptor photobleaching FRET in stress granules of live COS-7 cells; EGFP donor, mCherry RFP acceptor

- FRET efficiency: 14.5%
Substance: RFP-CPEB4 (natural protein)
